This experiment has as its target HSP90β (human) (UniProt P08238). Put plainly: cryo-EM structure; HSP90–CDC37–BRAF^V600E complex incubated with PP5 D274N, purified by SEC, cross-linked with 1 mM BS3; one sample gave three classes: HCK (3.4 Å), HCK-P open (4.2 Å), HCK-P closed (3.9 Å); PP5 modelled by rigid-body docking.

With “HSP90β, P08238 1-724 (natural protein; phosphorylation at Ser226 and Ser255 found by mass spectrometry; phosphorylation at Ser226 and Ser255 found by mass spectrometry; other documents disagree on this pair)”, the stoichiometry N – broadly, a count of units in the complex or per binding partner – was determined as 2.
